# Source: PMC8159254
# Molecular target: NfRedAm, reductive aminase from Neosartorya fumigata (Neosartorya fumigata)
# Assay: SEC-MALS
substance,measurement,value
"NfRedAm, reductive aminase from Neosartorya fumigata (enzyme)",stoichiometry N,2
